Experimental data taken from patent US20040001848.

What was measured:
[1] = system: myelin basic protein (MBP)
[2] = target: bovine serum albumin (BSA) (UniProt P02769)
β-casein = target: T1, β-casein (UniProt P02666)
T1 sequence: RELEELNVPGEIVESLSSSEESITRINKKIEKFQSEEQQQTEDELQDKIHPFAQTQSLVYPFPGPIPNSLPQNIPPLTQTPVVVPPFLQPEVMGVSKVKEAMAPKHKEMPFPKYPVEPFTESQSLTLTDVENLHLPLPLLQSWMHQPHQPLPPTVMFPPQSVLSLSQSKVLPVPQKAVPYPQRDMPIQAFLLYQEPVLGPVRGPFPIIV

[3] = system: recombinant serum albumin
ovalbumin = ovalbumin (UniProt P01012)
ovalbumin, sequence (P01012 2-386): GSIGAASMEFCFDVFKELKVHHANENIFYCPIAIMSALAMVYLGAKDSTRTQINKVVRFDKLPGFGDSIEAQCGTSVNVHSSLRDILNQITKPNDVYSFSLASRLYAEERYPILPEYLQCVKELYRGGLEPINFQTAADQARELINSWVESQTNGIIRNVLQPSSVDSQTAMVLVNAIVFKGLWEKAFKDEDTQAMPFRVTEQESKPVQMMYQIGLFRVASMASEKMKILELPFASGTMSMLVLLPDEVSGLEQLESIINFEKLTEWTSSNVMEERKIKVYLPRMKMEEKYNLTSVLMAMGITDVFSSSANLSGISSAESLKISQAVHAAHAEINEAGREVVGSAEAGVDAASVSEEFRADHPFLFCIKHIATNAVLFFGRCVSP

bovine serum albumin (BSA), sequence (P02769 25-607): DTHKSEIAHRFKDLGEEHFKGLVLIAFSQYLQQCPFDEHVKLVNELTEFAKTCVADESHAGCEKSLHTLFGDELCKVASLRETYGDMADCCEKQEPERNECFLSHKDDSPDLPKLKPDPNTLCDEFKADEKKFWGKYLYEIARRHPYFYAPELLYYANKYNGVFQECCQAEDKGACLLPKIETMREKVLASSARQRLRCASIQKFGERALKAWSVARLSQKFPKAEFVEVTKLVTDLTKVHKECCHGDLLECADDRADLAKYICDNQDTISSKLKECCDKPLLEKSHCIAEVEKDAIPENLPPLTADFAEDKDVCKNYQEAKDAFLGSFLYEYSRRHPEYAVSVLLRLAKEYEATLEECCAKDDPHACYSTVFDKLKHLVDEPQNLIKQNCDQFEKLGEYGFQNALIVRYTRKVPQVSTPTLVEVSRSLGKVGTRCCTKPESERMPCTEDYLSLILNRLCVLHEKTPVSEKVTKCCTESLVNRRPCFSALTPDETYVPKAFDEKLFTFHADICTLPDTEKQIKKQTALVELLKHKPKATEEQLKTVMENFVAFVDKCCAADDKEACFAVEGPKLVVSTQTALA

With “recombinant 6×-His-TGase fusion protein of Streptomyces mobaraensis ATCC 29032” the “cross-linking of native protein” value [1] was “there was no cross-linking”, the “cross-linking of native protein” value [2] was “there was no cross-linking” and the “cross-linking of a mixture of β-casein and glucose oxidase on SDS-PAGE” value (β-casein) was “both protein species can be cross-linked by the purified recombinant SM TGase”. For the same substance, the “cross-linking of β-casein on SDS-PAGE” value (β-casein) was “the cross-linked (CL) β-casein migrated as a smear on the SDS-PAGE gel indicating a mixture of high molecular weight polymers of different length”, the “cross-linking of β-casein on SDS-PAGE, 0 mM DTT” value (β-casein) was “had no cross-linking activity on β-casein” and the “cross-linking of β-casein on SDS-PAGE, about 2 mM DTT” value (β-casein) was “β-casein run as a mixture of cross-linked polymer and monomer”. The “cross-linking of β-casein on SDS-PAGE, about 10 mM DTT” value (β-casein) was “cross-linking of all detectable β-casein substrates in the reaction”, the “cross-linking of BSA5 peptide on SDS-PAGE” value (BSA5 peptide) was “increased amount of recombinant SM TGase corresponding to an increase in cross-linked (CL) BSA5 peptide” and the “cross-linking of recombinant serum albumin on SDS-PAGE” value [3] was “revealed a mixture of very high molecular weight polymers of different length”. The “cross-linking of native protein” value (ovalbumin) was “there was no cross-linking”, the “cross-linking of native protein” value (histone H3 protein) was “there was no cross-linking” and the “cross-linking of native protein on SDS-PAGE” value (histone H3 protein) was “complete and partial cross-linking was both observed for native histine H3 protein under the condition tested”. For the same substance, the “cross-linking of β-amyloid (1-42) peptide on SDS-PAGE, 1 to 3 hours” value (β-amyloid peptide (1-42)) was “can be cross-linked by the recombinant transglutaminase as shown as a smear of a mixture of cross-linked peptides”.
